The Human Domainome abundance scans (Beltran et al. 2025)

B1: Nuclear receptor subfamily 4 group A member 2, residues 260 to 336; numbered along this chain, P43354 (parent)
chain: EGLCAVCGDNAACQHYGVRTCEGCKGFFKRTVQKNAKYVCLANKNCPVDKRRRNRCQYCRFQKCLAVGMVKEVVRTD
B2: Transcription elongation factor A N-terminal and central domain-containing protein, residues 30 to 77; numbered along this chain, Q8N8B7 (parent)
chain: LTELETIYVTKEHLQETDVVRAVYRVLKNCPSVALKKKAKCLLSKWKA

Variants of: B1
Assay: abundance fitness (aPCA) (normalised: wild type 0, dead -1); higher = more abundant; growth selection in yeast, the domain comes from the species named
Settings: Homo sapiens

Abundance fitness of substitutions, site by site:
M69: S -0.627, A -0.191, I -0.618, R -0.64, L -0.07, W -0.235, E -0.448, V -0.285, F -0.042, G -0.463, C -0.247, D -0.704
V73: F 0.02, G -0.024, S -0.305, H 0.014, T 0.274, M -0.032, R -0.099, D -0.105, A -0.258, C -0.131, W -0.104, E -0.063, L -0.065
C64: R -0.608, I -0.399, G -0.277, S -0.397, L -0.372, F -0.848, W -0.859, A -0.163
R75: S 0.063, D -0.136, Y -0.112, L 0.015, V 0, W -0.103, I -0.017, E 0.094, T 0.214, G 0.033, Q 0.065, N 0, C 0.057, M 0.019, A -0.01
A66: N 0.101, T -0.223, M -0.032, V -0.17, G -0.013, D 0.135, K -0.2, F -0.228, L 0.005, E -0.051, R -0.114, W -0.282, C -0.21, I -0.099
R55: L 0.035, G -0.023, W -0.026, M -0.089, S -0.164, V 0.024, Y 0.038
V67: F -0.449, G -0.261, D -0.728, S -0.097, W -0.706, L -0.078, R -0.134, M -0.035, T -0.06, A -0.029, H -0.088, K 0.086, C -0.114, E -0.017, I 0.058
V70: E 0.062, M -0.055, I 0.102, L -0.023, F -0.095, A 0.06, S -0.053, G -0.017, K -0.208, P -0.197, W -0.255, R -0.013
K63: T 0.038, L -0.354, M -0.025, A -0.048, D -0.52, W -0.569, G -0.559, V -0.304, E -0.898, R -0.206
Q57: A 0.068, L -0.034, W -0.28, M 0.463, P 0.187, S 0.083, R -0.289, Y -0.158, E -0.083, V -0.126, F -0.177
L65: Y -0.317, W -0.299, E -0.038, V -0.096, T -0.659, N 0.153, S -0.308, M -0.262, A -0.146, I -0.274, G -0.264
V74: F -0.148, W -0.208, G -0.013, I 0.091, C -0.098, R -0.118, D 0.131, L -0.052, S -0.101, A -0.1, K -0.025
K71: P 0.141, F -0.258, D -0.296, I -0.19, L -0.078, A 0.008, W -0.194, R -0.054, G -0.081, M -0.352, E -0.046, Q 0.33, Y 0.114
G68: I -0.481, C -0.489, N -0.126, D -0.403, V -0.836, R -0.314, F -0.436, M -0.085, S -0.287, E -0.63, A -0.26, L -0.589
E72: D 0.11, S -0.012, L -0.468, W -0.276, P 0.116, I -0.173, G -0.067, T 0.092, M -0.099, V -0.268, K 0.154, C -0.344, A -0.133, N 0.024, F -0.267
Y58: A 0.041, D -0.123, G -0.298, C -0.173, W -0.063, V -0.761, L -0.441, R -0.345, F 0.051, E -0.055, S 0.129
C59: R -1.17, W -1.33, V -0.919, F -1.03, A -0.549, E -0.318
C56: G -1.05, F -1.21, S -0.667, A -0.941, W -0.908, E -0.894, L -1.09, D -0.707, R -1.06, V -1.05
D77: S -0.124, C -0.061, P 0.163, W -0.211, V -0.122, K -0.1, M -0.092, F -0.229, E 0.117, A -0.006, I -0.347, G -0.042, L -0.101, R -0.3
R60: I -0.355, M 0.053, V 0.01, G -0.648, E -0.651, F -0.115, S -0.033, C 0.101, L 0.047, W 0.014
T76: S -0.014, E 0.161, A 0.117, I -0.007, L -0.228, D 0.098, P -0.004, F -0.079, V -0.019, N 0.221, K -0.041, Q -0.152, C 0.109, W -0.085, M -0.166, R 0.015, Y 0.168
Q62: I -0.241, C -0.153, S 0.018, W -0.345, K 0.079, A -0.095, E -0.245, R -0.234, V -0.137, N -0.38, M 0.079, G -0.297, D -0.139, L -0.137, F -0.31
F61: W -0.05, V -0.401, S -0.235, D -0.745, I 0.007, L 0.057, C -0.701, M 0.072, R -0.989, T -0.377, G -1.01, Q -0.187

Variants of: B2
Assay: as above
Settings: Homo sapiens

Abundance fitness of substitutions, site by site:
E3: T -0.464, R -0.24, P -0.45, F 0.477, V -0.102, Q -0.222, D -0.209, N -0.001, L -0.07, I -0.112, K -0.195, G -0.416, S -0.149, W 0.305, C 0.159, Y -0.207, M -0.045, H -0.696
L4: I -0.174, M 0.022, E 0.173, N 0.469, F -0.044, C -0.51, K 0.272, P 0.279, D 0.257, R 0.11, A 0.17, H 0.025, Q 0.142
T2: S 0.198, C -0.501, Y -0.078, Q -0.177, K 0.11, D 0.107, N 0.036, M -0.461, G -0.078, W -0.711, P -0.629, E 0.27, V -0.813, R 0.011, I -0.369, A -0.385, L -0.389, F -0.483
L1: C -0.162, R -0.202, F -0.001, W -0.554, S -0.501, T 0.251, Q 0.202, V -0.379, M 0.235, G 0.363, Y -0.521
